{
  "source": "paper PMC8389850",
  "about": "“The PilB-PilZ-FimX regulatory complex of the Type IV pilus from Xanthomonas citri” (PLoS Pathogens, 2021)",
  "key": {"[1]": {"molecular_target": "PilZ_(W69_5OHW) (Xanthomonas citri pv. citri strain 306)", "assay": "other fluorescence titration"}, "[2]": {"molecular_target": "PilB_(1-190), His tag removed (Xanthomonas citri pv. citri strain 306)", "assay": "SEC-MALS"}, "[3]": {"molecular_target": "PilB_(12-163) (Xanthomonas citri pv. citri strain 306)", "assay": "SEC-MALS"}, "[4]": {"molecular_target": "full-length FimX (Xanthomonas citri pv. citri strain 306)", "assay": "SEC-MALS; full-length proteins and complexes; silica-based WTC column 7.8/300; 50 mM Tris-HCl pH 8.0, 50 mM NaCl, 5 mM MgCl2; without and with ATPγS and/or c-di-GMP (1:2 protein to ligand)"}},
  "data": [
    {"substance": "FimXEAL (domain or fragment)", "values": [
      {"measurement": "Kd", "setting": "[1]", "value": 200, "unit": "nM"}
    ]},
    {"substance": "His-tagged PilB_(1-190) (from UniProt A0AAI7ZH88 1-190) (domain or fragment)", "values": [
      {"measurement": "Kd", "setting": "[1]", "value": "< 4.1", "unit": "nM"}
    ]},
    {"substance": "PilZ (XAC1133), wild type, recombinant (from UniProt A0AAI7ZDW4 1-117) (natural protein)", "values": [
      {"measurement": "stoichiometry N", "setting": "[2]", "value": 1},
      {"measurement": "stoichiometry N", "setting": "[3]", "value": 1}
    ]},
    {"substance": "full-length FimX (natural protein)", "values": [
      {"measurement": "stoichiometry N", "setting": "[4]", "value": 2}
    ]}
  ]
}
